T1: CADM1, endogenous in H929 multiple myeloma cells (human, UniProt Q9BY67 45-442)
T1 construct: Native protein on H929 cells (flow cytometry, siRNA knockdown) and in H929 lysates (IP/MS); RPMI-8226 cells were used for sorting with HW-97; also called IGSF4A
T1 sequence: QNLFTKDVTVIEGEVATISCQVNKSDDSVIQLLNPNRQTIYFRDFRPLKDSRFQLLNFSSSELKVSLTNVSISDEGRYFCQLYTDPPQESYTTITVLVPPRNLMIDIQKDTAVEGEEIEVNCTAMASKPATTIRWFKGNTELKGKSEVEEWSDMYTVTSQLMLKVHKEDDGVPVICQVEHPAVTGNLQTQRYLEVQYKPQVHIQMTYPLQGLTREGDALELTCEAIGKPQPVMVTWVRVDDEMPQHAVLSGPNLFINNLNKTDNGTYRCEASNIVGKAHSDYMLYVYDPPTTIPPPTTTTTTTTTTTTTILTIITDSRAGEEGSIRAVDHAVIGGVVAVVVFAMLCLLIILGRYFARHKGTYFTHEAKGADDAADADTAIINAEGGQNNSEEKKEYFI

T2: GARS-His (Sino Biological) (human, UniProt P41250 37-739, limits assumed)
T2 construct: Bought; also called GARS1; glycyl-tRNA synthetase; not shown: His tag of the bought protein
T2 sequence: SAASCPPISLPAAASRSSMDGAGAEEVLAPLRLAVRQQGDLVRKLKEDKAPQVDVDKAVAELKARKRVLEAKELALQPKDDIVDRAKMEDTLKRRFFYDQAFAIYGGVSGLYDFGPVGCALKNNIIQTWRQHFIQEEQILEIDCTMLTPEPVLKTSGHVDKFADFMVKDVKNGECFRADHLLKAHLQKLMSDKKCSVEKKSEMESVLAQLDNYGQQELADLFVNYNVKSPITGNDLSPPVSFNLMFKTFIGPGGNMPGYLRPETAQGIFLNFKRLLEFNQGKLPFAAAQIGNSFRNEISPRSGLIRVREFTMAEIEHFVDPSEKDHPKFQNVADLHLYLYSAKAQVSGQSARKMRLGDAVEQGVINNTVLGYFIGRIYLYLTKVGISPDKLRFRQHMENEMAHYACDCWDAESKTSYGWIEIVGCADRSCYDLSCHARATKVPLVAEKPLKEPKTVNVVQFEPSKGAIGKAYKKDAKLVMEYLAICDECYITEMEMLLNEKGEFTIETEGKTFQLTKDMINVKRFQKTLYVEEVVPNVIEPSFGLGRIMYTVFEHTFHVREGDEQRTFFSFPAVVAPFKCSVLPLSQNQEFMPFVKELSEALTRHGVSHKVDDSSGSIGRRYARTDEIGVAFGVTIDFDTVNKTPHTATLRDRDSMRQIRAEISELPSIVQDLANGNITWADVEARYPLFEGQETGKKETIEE


Legend:
[1] = target: T3, PTPRG, endogenous in H929 multiple myeloma cells (human, UniProt P23470 20-1445); experiment: flow cytometry, H929 + GARS siRNA; None 452
T3 construct: Native protein on H929 cells (flow cytometry, siRNA knockdown) and in H929 lysates (IP/MS); also called phosphatase receptor type γ
T3 sequence (P23470 20-1445 limits assumed): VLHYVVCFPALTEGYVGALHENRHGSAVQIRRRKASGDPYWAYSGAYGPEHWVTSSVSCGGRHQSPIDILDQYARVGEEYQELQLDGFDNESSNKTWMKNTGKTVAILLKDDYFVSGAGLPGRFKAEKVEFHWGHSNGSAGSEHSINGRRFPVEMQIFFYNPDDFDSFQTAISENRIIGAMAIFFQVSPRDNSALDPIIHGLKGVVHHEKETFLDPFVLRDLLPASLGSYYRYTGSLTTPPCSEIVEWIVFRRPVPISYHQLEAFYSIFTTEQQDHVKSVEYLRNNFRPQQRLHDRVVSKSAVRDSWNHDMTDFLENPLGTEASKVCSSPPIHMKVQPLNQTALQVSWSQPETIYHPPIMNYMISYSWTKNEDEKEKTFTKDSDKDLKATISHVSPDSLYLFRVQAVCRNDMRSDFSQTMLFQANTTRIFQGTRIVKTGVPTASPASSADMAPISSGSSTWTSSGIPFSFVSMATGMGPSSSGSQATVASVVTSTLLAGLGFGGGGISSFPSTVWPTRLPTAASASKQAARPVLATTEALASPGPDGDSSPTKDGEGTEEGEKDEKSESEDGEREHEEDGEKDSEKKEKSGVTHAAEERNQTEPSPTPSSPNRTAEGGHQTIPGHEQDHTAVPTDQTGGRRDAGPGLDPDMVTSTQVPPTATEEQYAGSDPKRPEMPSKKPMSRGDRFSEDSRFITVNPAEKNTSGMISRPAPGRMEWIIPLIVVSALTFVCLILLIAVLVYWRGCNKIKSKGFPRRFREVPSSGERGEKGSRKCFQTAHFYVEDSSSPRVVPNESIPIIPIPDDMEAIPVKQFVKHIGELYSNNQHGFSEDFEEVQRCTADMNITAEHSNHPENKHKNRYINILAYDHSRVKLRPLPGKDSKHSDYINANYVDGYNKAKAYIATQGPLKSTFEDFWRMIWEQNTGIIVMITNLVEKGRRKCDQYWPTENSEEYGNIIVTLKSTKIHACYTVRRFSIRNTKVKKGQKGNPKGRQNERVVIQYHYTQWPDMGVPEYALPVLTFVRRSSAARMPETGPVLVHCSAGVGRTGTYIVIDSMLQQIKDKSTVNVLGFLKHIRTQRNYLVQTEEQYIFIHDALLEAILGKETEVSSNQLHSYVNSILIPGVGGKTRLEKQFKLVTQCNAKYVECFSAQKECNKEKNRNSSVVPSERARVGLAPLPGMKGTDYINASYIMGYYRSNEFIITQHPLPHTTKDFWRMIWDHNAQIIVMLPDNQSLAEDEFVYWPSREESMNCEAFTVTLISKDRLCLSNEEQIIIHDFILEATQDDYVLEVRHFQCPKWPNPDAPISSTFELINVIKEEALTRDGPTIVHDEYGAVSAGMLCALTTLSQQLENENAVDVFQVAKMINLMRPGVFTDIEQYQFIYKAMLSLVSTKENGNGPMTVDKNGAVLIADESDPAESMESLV

[2] = target: T3, PTPRG, endogenous in H929 multiple …; experiment: flow cytometry, H929 + CDH18 siRNA; None 443
[3] = target: T4, ICAM1, endogenous in H929 multiple myeloma cells (human, UniProt P05362 28-532); experiment: flow cytometry, H929 + NT Green siRNA; None 1.35
T4 construct: Native protein on H929 cells (flow cytometry, siRNA knockdown) and in H929 lysates (IP/MS); also called CD54
T4 sequence (P05362 28-532 limits assumed): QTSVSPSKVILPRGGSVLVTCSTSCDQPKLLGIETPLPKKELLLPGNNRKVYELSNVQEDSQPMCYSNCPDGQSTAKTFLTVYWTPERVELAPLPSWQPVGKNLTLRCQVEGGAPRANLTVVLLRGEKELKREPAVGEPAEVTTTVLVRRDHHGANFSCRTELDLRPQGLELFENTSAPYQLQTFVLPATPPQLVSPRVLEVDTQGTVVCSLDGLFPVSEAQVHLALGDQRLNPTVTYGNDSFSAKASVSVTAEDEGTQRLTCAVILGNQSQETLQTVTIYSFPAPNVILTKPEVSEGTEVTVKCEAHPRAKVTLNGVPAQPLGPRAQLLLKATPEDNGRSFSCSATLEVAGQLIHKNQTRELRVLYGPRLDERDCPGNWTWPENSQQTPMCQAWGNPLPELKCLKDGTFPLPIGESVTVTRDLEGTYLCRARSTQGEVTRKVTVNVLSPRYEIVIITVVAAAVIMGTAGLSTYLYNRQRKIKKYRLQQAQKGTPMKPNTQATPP

[4] = target: T4, ICAM1, endogenous in H929 multiple …; experiment: flow cytometry, H929 + GARS siRNA; None 452
[5] = target: T4, ICAM1, endogenous in H929 multiple …; experiment: flow cytometry, H929 + CADM1 siRNA; None 0.89
[6] = target: T4, ICAM1, endogenous in H929 multiple …; experiment: flow cytometry, H929 + NT Green siRNA; None 416
[7] = target: T4, ICAM1, endogenous in H929 multiple …; experiment: flow cytometry, H929 + CDH18 siRNA; None 443
[8] = target: T4, ICAM1, endogenous in H929 multiple …; experiment: flow cytometry, H929 + vehicle; None 2.74
[9] = target: T4, ICAM1, endogenous in H929 multiple …; experiment: flow cytometry, H929 + PTPRG siRNA; None 2.13
[10] = target: T1, CADM1, endogenous in H929 multiple …; experiment: flow cytometry, H929 + ICAM1 siRNA; None 455
[11] = target: T1, CADM1, endogenous in H929 multiple …; experiment: flow cytometry, H929 + PTPRG siRNA; None 490
[12] = target: T1, CADM1, endogenous in H929 multiple …; experiment: flow cytometry, H929 + GARS siRNA; None 452
[13] = target: T1, CADM1, endogenous in H929 multiple …; experiment: flow cytometry, H929 + CDH18 siRNA; None 443
[14] = target: T2, GARS-His (Sino Biological); experiment: ELISA, coated recombinant GARS-His, anti-human Fab-peroxidase detection
Experimental: ELISA ELISA was conducted as described previously. Briefly, 50-150 ng of antigen was coated overnight in half-area 96-well plates at 4° C., blocked with 3% BSA at 37° C. for 1 h, and 150 ng of chimeric rabbit/human IgG1 was added, incubating for 2 h at 37° C. […] After incubating at 37° C. for 15 min-1 h (depending on intensity of controls), data were acquired using a SpectraMax M5 plate reader (Molecular Devices).

| Binder | Cells stained (%) [3] [%] | mAb binding (MFI) [6] | Cells stained (%) [8] [%] | mAb binding (MFI) [10] | mAb binding (MFI) [11] | other results |
| --- | --- | --- | --- | --- | --- | --- |
| HW-42 chimeric rabbit-human IgG1 LA/LA/PG (antibody, V domains shown, Fc-silenced (L234A/L235A/P329G) IgG1, lambda; Alexa Fluor 647-labeled in single-step flow cytometry; Cluster C-1) VH: QSVKESEGGLFKPADTLTLTCTVSGFSLSSNEISWVRQAPGEGLEYIGIIDTGGRAYYAVWARSRSTITRNTNLNTVTLKMTSLTAADTATYFCARGGVDTEWYAFSSWGPGTLVTVPS VL: SFVLTQPASVQVNLGQTVSLTCTADTLSRRYASWYQQKPGQAPVLLIFRDTSRPSGVPDRFSGSSSGDTATLTISGAQAGDEADYYCATSDGSGSNYQYVFGGGTQLTVTG |  |  |  |  |  | mAb binding (MFI) [1]: 9850; mAb binding (MFI) [2]: 9870 |
| HW-113 chimeric rabbit-human IgG1 LA/LA/PG (antibody, V domains shown, Fc-silenced (L234A/L235A/P329G) IgG1, lambda; Alexa Fluor 647-labeled in single-step flow cytometry) VH: QKQLVESGGGLVQPGGSLTLTCTVSGFSLNKYYMGWFRQAPGKGLEWIGVISRSGDTYYSSWAKGRFTISKASTTVDLRITSPTTEDTATYFCARDASSPGFHGDRLDLWGQGTLVTVSS VL: SFVLTQPASVQVNLGQTVSLTCTADTLSRSYASWYQQKPGQAPVLLIYRDTSRPSGVPDRFSGSSSGNTATLTISGAQAGDEADYYCATSDGIGSNYLWVFGGGTQLTVTG | 99.8 | 51900 | 99.8 |  |  | mAb binding (MFI) [4]: 43200; Cells stained (%) [5]: 99.7%; mAb binding (MFI) [7]: 18200; Cells stained (%) [9]: 98.2% |
| HW-101 chimeric rabbit-human IgG1 LA/LA/PG (antibody, V domains shown, Fc-silenced (L234A/L235A/P329G) IgG1, lambda; Alexa Fluor 647-labeled in single-step flow cytometry; Cluster C-97) VH: QEQLVESGGRLVTPGTPLTLTCKASGFSLGKYDMSWVRQAPGKGLEWIGTIYAGSGSTWYASWAKGRFTISKTSTTVDLKMTSLTTEDTATYFCARDFLGVNSIWGPGTLVTISS VL: SFVLTQPASVQVNLGQTVSLTCTADTLSRSYASWYQQKPDQAPVLLIHRDTSRPSGVPDRFSGSNSGNTATLTISGAQAGDEADYYCATSDGSGSNFHFVFGGGTQLTVTG |  |  |  | 6390 | 5900 |  |
| HW-97 chimeric rabbit-human IgG1 LA/LA/PG (antibody, V domains shown, Fc-silenced (L234A/L235A/P329G) IgG1, lambda; Alexa Fluor 647-labeled in single-step flow cytometry; Prototype of cluster C-97) VH: QKQLVESGGRLVTPGTPLTLTCTVTGIDLSSHGMSWVRQAPGKGLEWIGVIYPSGSTWYASWARGRFTISKTSTTVDLKMTSLTTEDTATHFCARGDVGGADNNIWGPGTLVTVSS VL: SFVLTQPASVQVDLGQTVSLTCTAETLSRSYASWYQQKPGQAPVLLIYRDTSRPSGVPDRFSGSSSGNTATLTISGAQAGDEADYYCATSDGSGSSYQYVFGGGTQLTVTG |  |  |  | 9430 | 7040 | mAb binding (MFI) [12]: 22100; mAb binding (MFI) [13]: 17900 |
| HW-8 chimeric rabbit-human IgG1 LA/LA/PG (antibody, V domains shown, Fc-silenced (L234A/L235A/P329G) IgG1, kappa; Alexa Fluor 647-labeled in single-step flow cytometry; Cluster C-45) VH: QSLEESGGRLVTPGTPLTLTCTVSGFSLSSYAMSWVRQAPGKGLEWIGAISTGGSTTYASWAKGRFTISKTSSTTVDLKMTSLTTEDTATYFCVRHFRLWGPGTLVTISS VL: QVLTQTPSSVSAAVGGTVTIKCQASQSIGSALAWFQQKPGQRPKLLIYRASNLASGVPSRFKGSGSGTEFALTISGVQREDAATYYCLGGAAAVWAFGAGTNVEIKR |  |  |  |  |  | binding result [14]: no binding (tested: 150 ng of IgG1 per well) |
| TH9-0022 (antibody, human IgG1, kappa, L234A L235A, V domains shown, also called TH9-022; negative control) VH: QSLEESGGRLVTPGTPLTLTCTVSGFSLSSYAMNWVRQAPGKGLEWIGIINSYGSTYYASWAKGRFTISKTSTTVDLKITSPTTEDTATYFCARVTYDSYGYGYAPYGMDLWGPGTLVTVSS VL: LVMTQTPSSTSNAVGGTVTIKCQASQSIGNVLAWYQQKPGQPPKLLIYAASTLASGVPSRVGGSRSGTEYTLTISGVQREDAATYYCLGSDSDSDIAFGGGTELEILR | 1.86 | 483 | 2.62 |  |  |  |

Reference: patent publication US20260049134A1 (UNIVERSITY OF FLORIDA RESEARCH FOUNDATION, published 2026)
